These results are taken from paper PMC7774594, “Functional Characterization of Primordial Protein Repair Enzyme M38 Metallo-Peptidase From Fervidobacterium islandicum AW-1” (Frontiers in Molecular Biosciences, 2020).

In data set [1] the target is T1, FiBAP (M38 β-aspartyl peptidase from Fervidobacterium islandicum AW-1) (Fervidobacterium islandicum, UniProt A0AAI8CML9).
T1 construct: gene iadA; full length (M1-E386), 6xHis tag (N-terminal per methods with pET-28a, C-terminal per results), E. coli BL21(DE3); 42 kDa monomer, 318 kDa octamer (tetramer of dimers); binuclear Zn
T1 sequence (A0AAI8CML9 1-387): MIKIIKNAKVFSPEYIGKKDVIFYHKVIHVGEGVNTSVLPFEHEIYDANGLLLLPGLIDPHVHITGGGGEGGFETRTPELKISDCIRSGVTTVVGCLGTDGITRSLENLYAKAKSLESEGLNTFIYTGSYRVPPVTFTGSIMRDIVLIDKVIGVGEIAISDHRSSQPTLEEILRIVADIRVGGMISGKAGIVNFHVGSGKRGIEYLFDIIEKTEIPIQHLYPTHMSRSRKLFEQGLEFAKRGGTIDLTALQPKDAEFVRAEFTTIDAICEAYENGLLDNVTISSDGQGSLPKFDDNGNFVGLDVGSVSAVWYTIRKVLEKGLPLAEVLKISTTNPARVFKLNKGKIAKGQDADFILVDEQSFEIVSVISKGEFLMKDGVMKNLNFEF
Nature of the data set: enzyme activity inhibition (data not shown). The conditions noted are these: substrate analog inhibitor, conditions not given. The data set is classed as biochemical.

The target in data set [2] is T1, FiBAP (M38 β-aspartyl peptidase from Fervidobacterium islandicum AW-1). Nature of the data set: X-ray crystal structure, […] Å. The data set is classed as binding. As to conditions: co-crystallised with Cbz-β-DL, but only the β-DL moiety has density; wild type; binuclear Zn active site; pH about 5.
Data set [3] concerns the target M38 β-aspartyl peptidase from Fervidobacterium islandicum AW-1 (FiBAP) (Fervidobacterium islandicum AW-1). Nature of the data set: SEC; Superdex 200 10/300 GL, 25 mM Tris-HCl pH 7.5, 150 mM NaCl; calibrated with blue dextran, thyroglobulin, ferritin, aldolase, conalbumin, ovalbumin; apparent Mr 318,000 against 42,000 by SDS-PAGE; octamer.
The target is the same in data set [4]. Nature of the data set: crystal structure; hanging drop vapor diffusion at 20°C; ligand-free (I422, one subunit in the asymmetric unit, 2.6 Å) and with Cbz-β-Asp-Leu (P22(1)2, four subunits, 2.7 Å); octamer (tetramer of dimers) from symmetry-related molecule analysis.
Substrate in data set [5]: CC(C)C[C@H](NC(=O)C[C@H](N)C(=O)O)C(=O)O
Briefly: ninhydrin assay of free amino acids, Michaelis-Menten fit. As to conditions: 50 mM HEPES pH 8.0, 1 mM CoCl2, 80°C, 10 min, 1–32 mM substrate. The format is biochemical, Fervidobacterium islandicum. The text has this:
ninhydrin assay of free amino acids, Michaelis-Menten fit on FiBAP ([…] β-aspartyl peptidase from Fervidobacterium islandicum AW-1) | steady-state kinetics analysis of FiBAP with β-DL as substrate, yielding Km and Vmax values

`CC(C)C[C@H](NC(=O)C[C@H](NC(=O)OCc1ccccc1)C(=O)O)C(=O)O` [N-carbobenzoxy-β-Asp-Leu]: the “enzyme activity inhibition (data not shown)” value in data set [1] is listed as “our substrate analog (Cbz-β-DL) containing Cbz inhibited enzyme activity in our enzyme assays”.
Regarding `CC(C)C[C@H](NC(=O)C[C@H](N)C(=O)O)C(=O)O` [β-Asp-Leu], the “X-ray crystal structure, 2.7 Å” value in data set [2] was “included distinct electron density only for the β-DL moiety lacking carbamazepine (Cbz)”.
For “M38 β-aspartyl peptidase from Fervidobacterium islandicum AW-1 (FiBAP) (enzyme)”, the stoichiometry N in data set [3] and in data set [4] was 8 in each case.

B1: FiBAP (M38 β-aspartyl peptidase from Fervidobacterium islandicum AW-1) (Fervidobacterium islandicum) (protein)
chain: MIKIIKNAKVFSPEYIGKKDVIFYHKVIHVGEGVNTSVLPFEHEIYDANGLLLLPGLIDPHVHITGGGGEGGFETRTPELKISDCIRSGVTTVVGCLGTDGITRSLENLYAKAKSLESEGLNTFIYTGSYRVPPVTFTGSIMRDIVLIDKVIGVGEIAISDHRSSQPTLEEILRIVADIRVGGMISGKAGIVNFHVGSGKRGIEYLFDIIEKTEIPIQHLYPTHMSRSRKLFEQGLEFAKRGGTIDLTALQPKDAEFVRAEFTTIDAICEAYENGLLDNVTISSDGQGSLPKFDDNGNFVGLDVGSVSAVWYTIRKVLEKGLPLAEVLKISTTNPARVFKLNKGKIAKGQDADFILVDEQSFEIVSVISKGEFLMKDGVMKNLNFEF
notes: full length (M1-E386), 6xHis tag (N-terminal per methods with pET-28a, C-terminal per results), E. coli BL21(DE3); 42 kDa monomer, 318 kDa octamer (tetramer of dimers); binuclear Zn
With B1, the Michaelis-Menten constant (Km) in data set [5] is 5.23 ± 1.59 mg/mL.
